Tests used:
[1] = target: TIM-3 expressed on activated human T cells (human (endogenous in activated T cells)) (UniProt Q8TDQ0)
[2] = target: TIM-3 expressed on activated human T cells (human (endogenous in activated T cells)) (UniProt Q8TDQ0); experiment: Scatchard analysis; on activated human T cells
[3] = target: TIM-3 expressed on activated human T cells (human (endogenous in activated T cells)) (UniProt Q8TDQ0); experiment: flow cytometry on cells; FACS on activated human T cells

UniProt Q8TDQ0, sequence (Q8TDQ0 22-301): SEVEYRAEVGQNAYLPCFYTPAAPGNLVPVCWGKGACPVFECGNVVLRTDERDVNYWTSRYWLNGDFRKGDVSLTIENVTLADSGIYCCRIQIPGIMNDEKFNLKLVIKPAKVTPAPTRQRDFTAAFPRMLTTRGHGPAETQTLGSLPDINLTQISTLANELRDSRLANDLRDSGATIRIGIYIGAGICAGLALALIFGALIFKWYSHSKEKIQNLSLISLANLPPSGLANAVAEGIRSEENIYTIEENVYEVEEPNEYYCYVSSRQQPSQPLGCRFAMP

Q: Which EC50 in a human tumor TIL assay (IFN-gamma; TIL co-cultured with irradiated CHO-OKT3 cells) [1] does the source give for “BMS-986258, fully human immunoglobulin (Ig)G1 anti-TIM-3 monoclonal antibody” here?
A: The EC50 in a human tumor TIL assay (IFN-gamma; TIL co-cultured with irradiated CHO-OKT3 cells) was 1.2 nM.

Q: And the Kd [2]?
A: Its Kd is 0.16 nM.

Q: What about the EC50 [3] of the same substance?
A: The EC50 was 0.1 nM.

From paper PMC6220479
